Tested on: Escherichia coli TOP10
Assay: shrunken log2 fold change of peptide-encoding DNA abundance (4.5 h post-induction vs induction); higher = less antimicrobial activity (less host growth inhibition)
Details: time post-induction: 4.5 h; library: site-saturation at positions 5, 18, 19, 20
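Further: peptides expressed intracellularly from a pBAD plasmid library in pooled LB shake-flask culture, induced with 0.3% L-arabinose, DNA abundance read by NGS, three biological replicates, DESeq2 with apeglm shrinkage.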

Sequence	shrunken log2 fold change
RRIRKRPPRLPRPRPRPGLNPRP	0.0896
RRIRKRPPRLPRPRPRPGLVPRP	0.783
RRIRKRPPRLPRPRPRPGMVPRP	0.8
RRIRKRPPRLPRPRPRPGNMPRP	0.257
RRIRKRPPRLPRPRPRPGQGPRP	0.205
RRIRKRPPRLPRPRPRPGRRPRP	0.438
RRIRKRPPRLPRPRPRPGTDPRP	-0.165
RRIRKRPPRLPRPRPRPGTGPRP	0.1
RRIRKRPPRLPRPRPRPGTNPRP	0.124
RRIRKRPPRLPRPRPRPGTPPRP	0.824
RRIRKRPPRLPRPRPRPGVIPRP	0.251
RRIRKRPPRLPRPRPRPGVVPRP	0.755
RRIRKRPPRLPRPRPRPGYCPRP	-0.275
RRIRKRPPRLPRPRPRPGYFPRP	-0.0741
RRIRKRPPRLPRPRPRPGYIPRP	0.0313
RRIRKRPPRLPRPRPRPHAHPRP	0.428
RRIRKRPPRLPRPRPRPHAYPRP	0.0163
RRIRKRPPRLPRPRPRPHCCPRP	-0.0219
RRIRKRPPRLPRPRPRPHCKPRP	-0.397
RRIRKRPPRLPRPRPRPHCQPRP	0.101
RRIRKRPPRLPRPRPRPHDDPRP	0.171
RRIRKRPPRLPRPRPRPHDSPRP	-0.0516
RRIRKRPPRLPRPRPRPHDWPRP	0.31
RRIRKRPPRLPRPRPRPHEIPRP	0.704
RRIRKRPPRLPRPRPRPHEWPRP	0.3

Sequence	shrunken log2 fold change
RRIRKRPPRLPRPRPRPHFDPRP	0.275
RRIRKRPPRLPRPRPRPHGCPRP	0.352
RRIRKRPPRLPRPRPRPHGWPRP	0.865
RRIRKRPPRLPRPRPRPHIAPRP	-0.415
RRIRKRPPRLPRPRPRPHIGPRP	-0.0664
RRIRKRPPRLPRPRPRPHIIPRP	0.0119
RRIRKRPPRLPRPRPRPHIRPRP	0.0177
RRIRKRPPRLPRPRPRPHKCPRP	2.12
RRIRKRPPRLPRPRPRPHLNPRP	0.14
RRIRKRPPRLPRPRPRPHLVPRP	0.0297
RRIRKRPPRLPRPRPRPHLWPRP	0.709
RRIRKRPPRLPRPRPRPHNAPRP	0.0979
RRIRKRPPRLPRPRPRPHNCPRP	0.0806
RRIRKRPPRLPRPRPRPHNRPRP	-0.137
RRIRKRPPRLPRPRPRPHNWPRP	0.172
RRIRKRPPRLPRPRPRPHPTPRP	0.431
RRIRKRPPRLPRPRPRPHQYPRP	-0.293
RRIRKRPPRLPRPRPRPHRRPRP	3.99
RRIRKRPPRLPRPRPRPHSHPRP	0.179
RRIRKRPPRLPRPRPRPHTAPRP	0.239
RRIRKRPPRLPRPRPRPHWIPRP	-0.0313
RRIRKRPPRLPRPRPRPHWVPRP	-0.0562
RRIRKRPPRLPRPRPRPHYHPRP	-0.145
RRIRKRPPRLPRPRPRPICCPRP	0.583
RRIRKRPPRLPRPRPRPIELPRP	-0.025

Sequence	shrunken log2 fold change
RRIRKRPPRLPRPRPRPIFMPRP	0.0293
RRIRKRPPRLPRPRPRPIGFPRP	-0.00176
RRIRKRPPRLPRPRPRPIGIPRP	-0.01
RRIRKRPPRLPRPRPRPIHGPRP	-0.122
RRIRKRPPRLPRPRPRPIHIPRP	-0.39
RRIRKRPPRLPRPRPRPIHSPRP	-0.00784
RRIRKRPPRLPRPRPRPIHWPRP	0.137
RRIRKRPPRLPRPRPRPIIGPRP	0.00654
RRIRKRPPRLPRPRPRPIITPRP	0.0225
RRIRKRPPRLPRPRPRPIKPPRP	0.0885
RRIRKRPPRLPRPRPRPINDPRP	-0.48
RRIRKRPPRLPRPRPRPIRKPRP	0.092
RRIRKRPPRLPRPRPRPISVPRP	-0.056
RRIRKRPPRLPRPRPRPISYPRP	-0.0078
RRIRKRPPRLPRPRPRPITAPRP	0.235
RRIRKRPPRLPRPRPRPIYEPRP	-0.0432
RRIRKRPPRLPRPRPRPIYMPRP	-0.0645
RRIRKRPPRLPRPRPRPKAIPRP	0.0275
RRIRKRPPRLPRPRPRPKALPRP	1.8
RRIRKRPPRLPRPRPRPKCTPRP	0.0297
RRIRKRPPRLPRPRPRPKCYPRP	-0.0561
RRIRKRPPRLPRPRPRPKDAPRP	-0.0585
RRIRKRPPRLPRPRPRPKDSPRP	0.218
RRIRKRPPRLPRPRPRPKEAPRP	0.334
RRIRKRPPRLPRPRPRPKFYPRP	-0.0589

Sequence	shrunken log2 fold change
RRIRKRPPRLPRPRPRPKGCPRP	0.0534
RRIRKRPPRLPRPRPRPKGDPRP	-0.0351
RRIRKRPPRLPRPRPRPKHMPRP	0.03
RRIRKRPPRLPRPRPRPKHYPRP	-0.283
RRIRKRPPRLPRPRPRPKIIPRP	-0.135
RRIRKRPPRLPRPRPRPKIQPRP	0.113
RRIRKRPPRLPRPRPRPKISPRP	-0.0246
RRIRKRPPRLPRPRPRPKLAPRP	1.58
RRIRKRPPRLPRPRPRPKLNPRP	0.218
RRIRKRPPRLPRPRPRPKMNPRP	0.2
RRIRKRPPRLPRPRPRPKPAPRP	1.11
RRIRKRPPRLPRPRPRPKRAPRP	1.04
RRIRKRPPRLPRPRPRPKRQPRP	0.0282
RRIRKRPPRLPRPRPRPKSLPRP	0.107
RRIRKRPPRLPRPRPRPKTAPRP	0.2
RRIRKRPPRLPRPRPRPKVPPRP	0.225
RRIRKRPPRLPRPRPRPKVRPRP	0.131
RRIRKRPPRLPRPRPRPKWVPRP	0.339
RRIRKRPPRLPRPRPRPKYNPRP	-0.267
RRIRKRPPRLPRPRPRPLAPPRP	0.65
RRIRKRPPRLPRPRPRPLARPRP	0.213
RRIRKRPPRLPRPRPRPLDCPRP	-0.0764
RRIRKRPPRLPRPRPRPLDVPRP	0.0117
RRIRKRPPRLPRPRPRPLFPPRP	0.161
RRIRKRPPRLPRPRPRPLGEPRP	0.445

Sequence	shrunken log2 fold change
RRIRKRPPRLPRPRPRPLGTPRP	0.388
RRIRKRPPRLPRPRPRPLGVPRP	0.438
RRIRKRPPRLPRPRPRPLHFPRP	-0.258
RRIRKRPPRLPRPRPRPLHGPRP	-0.0122
RRIRKRPPRLPRPRPRPLIHPRP	1.09
RRIRKRPPRLPRPRPRPLIKPRP	-0.338
RRIRKRPPRLPRPRPRPLIPPRP	-0.000217
RRIRKRPPRLPRPRPRPLITPRP	0.0992
RRIRKRPPRLPRPRPRPLKKPRP	0.0649
RRIRKRPPRLPRPRPRPLKQPRP	0.146
RRIRKRPPRLPRPRPRPLLEPRP	0.241
RRIRKRPPRLPRPRPRPLLKPRP	0.00409
RRIRKRPPRLPRPRPRPLPAPRP	1.13
RRIRKRPPRLPRPRPRPLQLPRP	0.166
RRIRKRPPRLPRPRPRPLRHPRP	0.35
RRIRKRPPRLPRPRPRPLSAPRP	0.402
RRIRKRPPRLPRPRPRPLSEPRP	0.251
RRIRKRPPRLPRPRPRPLTGPRP	-0.0975
RRIRKRPPRLPRPRPRPLVYPRP	-0.23
RRIRKRPPRLPRPRPRPLYCPRP	-0.237
RRIRKRPPRLPRPRPRPMCAPRP	0.583
RRIRKRPPRLPRPRPRPMCCPRP	-0.178
RRIRKRPPRLPRPRPRPMDEPRP	0.966
RRIRKRPPRLPRPRPRPMDMPRP	0.15
RRIRKRPPRLPRPRPRPMFWPRP	0.173

Sequence	shrunken log2 fold change
RRIRKRPPRLPRPRPRPMILPRP	-0.388
RRIRKRPPRLPRPRPRPMMQPRP	0.405
RRIRKRPPRLPRPRPRPMNEPRP	0.22
RRIRKRPPRLPRPRPRPMNMPRP	-0.0791
RRIRKRPPRLPRPRPRPMNRPRP	-0.029
RRIRKRPPRLPRPRPRPMQLPRP	0.197
RRIRKRPPRLPRPRPRPMRFPRP	0.123
RRIRKRPPRLPRPRPRPMSHPRP	-0.0712
RRIRKRPPRLPRPRPRPMTTPRP	0.31
RRIRKRPPRLPRPRPRPMVMPRP	0.0746
RRIRKRPPRLPRPRPRPMWTPRP	0.151
RRIRKRPPRLPRPRPRPMYLPRP	0.239
RRIRKRPPRLPRPRPRPNAGPRP	-0.00783
RRIRKRPPRLPRPRPRPNARPRP	0.076
RRIRKRPPRLPRPRPRPNAVPRP	0.385
RRIRKRPPRLPRPRPRPNCQPRP	-0.263
RRIRKRPPRLPRPRPRPNETPRP	0.118
RRIRKRPPRLPRPRPRPNFHPRP	0.676
RRIRKRPPRLPRPRPRPNGRPRP	0.131
RRIRKRPPRLPRPRPRPNHDPRP	-0.0524
RRIRKRPPRLPRPRPRPNHVPRP	0.0656
RRIRKRPPRLPRPRPRPNHYPRP	-0.441
RRIRKRPPRLPRPRPRPNNVPRP	0.0112
RRIRKRPPRLPRPRPRPNPFPRP	1.91
RRIRKRPPRLPRPRPRPNPSPRP	0.108

Reference: the supplement of paper PMC9112550, “Optimization of the antimicrobial peptide Bac7 by deep mutational scanning” (BMC Biology, 2022)
